B1: mouse monoclonal antibody clone 1A8 (anti-DEFA5) [modified: Fc glycosylation, mainly the G1F glycoform (intact ESI-MS)] [mouse] / peptide No. 57 of the overlapping library, DEFA5 amino acids 61-75 (ARATCYCRTGRCATR) [human] (parent complex)
chain 1: QVQLQQSGAELVRPGASVKMSCKALGYTFFDYEMHWMKQTPVYGLEWIGAIHPGSGDTAYNQKFKGKATLTADKSSNTAYMELSSLTSEDSAVYYCTREGTVVAPFDYWGQGTTLTVSS
chain 2: DVLMTQTPLSLPVSLGDQASISCRSSQSIVHSNGNTYLEWYLQKPGQSPKLLINKVSNRFSGVPDRFSGSGSGTDFTLKISRVEAEDLGVYYCFQGSYVPYTFGGGTKLEIK
chain 3: ARATCYCRTGRCATR

In one assay the parent is B1. Kind of assay: indirect ELISA; parent: 2.2; read off a plot. A general note: In an ELISA, binding on a coated surface is turned into a signal by an enzyme label.
For chain 3 AAATCYCRTGRCATR [chain 3 R2A], the response is about 1.9 OD450nm. On the same count and under the same terms, for chain 3 ARATCYCRTARCATR [chain 3 G10A] the value was about 1.9 OD450nm; for chain 3 ARATAYCRTGRCATR [chain 3 C5A], about 1.9 OD450nm. On the same count and under the same terms, for chain 3 ARGTCYCRTGRCATR [chain 3 A3G] the value was about 1.8 OD450nm; for chain 3 ARATCYCRAGRCATR [chain 3 T9A], about 1.7 OD450nm.

As for chain 3 ARATCYCRTGRAATR [chain 3 C12A], the response was about 0.95 OD450nm. Consider chain 3 ARATCYCRTGRCAAR [chain 3 T14A], for which the response is about 1.7 OD450nm.

On to chain 3 ARATCYCATGRCATR [chain 3 R8A], for which the response is about 1.8 OD450nm. Regarding chain 3 ARATCYCRTGRCGTR [chain 3 A13G], the response was about 1.8 OD450nm.

For chain 3 ARATCYCRTGRCATA [chain 3 R15A], the response is about 2.2 OD450nm. chain 3 ARAACYCRTGRCATR [chain 3 T4A]: the response is about 1.9 OD450nm. For chain 3 ARATCACRTGRCATR [chain 3 Y6A], the response is about 1.9 OD450nm. In the case of chain 3 ARATCYCRTGACATR [chain 3 R11A], the response is about 0.07 OD450nm.

Variants of B1 are the subject of a further assay. Description: indirect ELISA; parent: 2.6; read off a plot.
Take chain 3 AAATCYCRTGRCATR [chain 3 R2A]: the response is about 1.9 OD450nm. With chain 3 ARATCYCRTARCATR [chain 3 G10A], the response is about 1.9 OD450nm. With chain 3 ARATAYCRTGRCATR [chain 3 C5A], the response was about 2 OD450nm. As for chain 3 ARGTCYCRTGRCATR [chain 3 A3G], the response is about 1.8 OD450nm. The same measure, in the same setting: in the case of chain 3 ARATCYCRAGRCATR [chain 3 T9A] it was about 1.9 OD450nm. As to chain 3 ARATCYCRTGRAATR [chain 3 C12A], the response was about 1.1 OD450nm. Regarding chain 3 ARATCYCRTGRCAAR [chain 3 T14A], the response was about 2 OD450nm.

In the case of chain 3 ARATCYCATGRCATR [chain 3 R8A], the response is about 1.8 OD450nm. In the case of chain 3 ARATCYCRTGRCGTR [chain 3 A13G], the response was about 1.8 OD450nm. On the same count and under the same terms, for chain 3 ARATCYCRTGRCATA [chain 3 R15A] the value was about 2.6 OD450nm; for chain 3 ARAACYCRTGRCATR [chain 3 T4A], about 1.9 OD450nm; for chain 3 ARATCACRTGRCATR [chain 3 Y6A], about 1.8 OD450nm.

For the variant chain 3 ARATCYARTGRCATR [chain 3 C7A], the response was about 1.2 OD450nm.

For the variant chain 3 ARATCYCRTGACATR [chain 3 R11A], the response is about 0.07 OD450nm.

For the origin of these results see PMC12809912 (2025).
